Measurements reported in PMC314469, “Protein Interaction Networks by Proteome Peptide Scanning” (PLoS Biology, 2004).

What was measured:
Experiment in all cases: SPOT array
[1] = molecular target: T1, Boi1 SH3 (BOI1_YEAST), P38041
T1 chain: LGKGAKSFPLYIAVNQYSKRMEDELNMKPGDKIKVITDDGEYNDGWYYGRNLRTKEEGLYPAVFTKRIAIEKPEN

[2] = molecular target: T2, Boi2 SH3 (BOI2_YEAST), P39969
T2 chain: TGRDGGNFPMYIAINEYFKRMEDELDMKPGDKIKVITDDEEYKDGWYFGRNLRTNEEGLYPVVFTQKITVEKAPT

[3] = molecular target: T3, Myo5 SH3 (MYO5_YEAST), Q04439
T3 chain: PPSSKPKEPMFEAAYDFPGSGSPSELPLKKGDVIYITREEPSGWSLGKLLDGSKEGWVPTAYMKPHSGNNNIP

[4] = molecular target: T4, Rvs167 SH3 (RV167_YEAST), P39743
T4 chain: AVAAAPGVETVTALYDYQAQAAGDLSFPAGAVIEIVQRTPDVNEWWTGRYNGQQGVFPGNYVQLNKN

[5] = molecular target: Sho1 SH3 (SHO1_YEAST), P40073
[6] = molecular target: T5, Yfr024 SH3 (LSB3_YEAST), P43603
T5 chain: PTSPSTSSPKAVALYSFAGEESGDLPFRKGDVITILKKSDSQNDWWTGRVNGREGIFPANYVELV

[7] = molecular target: T6, Yhr016c SH3 (YSC84_YEAST), P32793
T6 chain: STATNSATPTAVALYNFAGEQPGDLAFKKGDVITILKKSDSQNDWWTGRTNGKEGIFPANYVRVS

Sequence of Sho1 SH3 (SHO1_YEAST), P40073 (P40073 295-366): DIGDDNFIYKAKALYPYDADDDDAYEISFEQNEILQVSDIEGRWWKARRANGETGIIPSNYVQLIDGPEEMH

Q: With HNAAKPIPHVPQAS [YKR067W 8-21] as the binder, how does the normalised SPOT signal, Boehringer light units (BLU); mean over the file's lines of this peptide [1] read?
A: Its normalised SPOT signal, Boehringer light units (BLU); mean over the file's lines of this peptide is 114.

Q: What about the normalised SPOT signal, Boehringer light units (BLU); mean over the file's lines of this peptide [2] of the same binder?
A: The normalised SPOT signal, Boehringer light units (BLU); mean over the file's lines of this peptide was 1.8.

Q: What about the normalised SPOT signal, Boehringer light units (BLU); mean over the file's lines of this peptide [3] of the same binder?
A: Its normalised SPOT signal, Boehringer light units (BLU); mean over the file's lines of this peptide is 62.3.

Q: And the normalised SPOT signal, Boehringer light units (BLU); mean over the file's lines of this peptide [4]?
A: The normalised SPOT signal, Boehringer light units (BLU); mean over the file's lines of this peptide was 20.6.

Q: And the normalised SPOT signal, Boehringer light units (BLU); mean over the file's lines of this peptide [5]?
A: Its normalised SPOT signal, Boehringer light units (BLU); mean over the file's lines of this peptide is 82.1.

Q: What about the normalised SPOT signal, Boehringer light units (BLU); mean over the file's lines of this peptide [6] of the same binder?
A: The normalised SPOT signal, Boehringer light units (BLU); mean over the file's lines of this peptide was 8.5.

Q: And the normalised SPOT signal, Boehringer light units (BLU); mean over the file's lines of this peptide [7]?
A: Its normalised SPOT signal, Boehringer light units (BLU); mean over the file's lines of this peptide is 59.3.

Q: What does the source list for HRLFKSTPGLPKLW [YAL048C 356-369]?
A: normalised SPOT signal, Boehringer light units (BLU); mean over the file's lines of this peptide [1]: 226; normalised SPOT signal, Boehringer light units (BLU); mean over the file's lines of this peptide [2]: 123; normalised SPOT signal, Boehringer light units (BLU); mean over the file's lines of this peptide [3]: 266; normalised SPOT signal, Boehringer light units (BLU); mean over the file's lines of this peptide [4]: 605; normalised SPOT signal, Boehringer light units (BLU); mean over the file's lines of this peptide [5]: 642; normalised SPOT signal, Boehringer light units (BLU); mean over the file's lines of this peptide [6]: 2840; normalised SPOT signal, Boehringer light units (BLU); mean over the file's lines of this peptide [7]: 96.9

Q: For HTIPKSGPIVPYVL [YGR010W 26-39], which normalised SPOT signal, Boehringer light units (BLU); mean over the file's lines of this peptide [1] is on record?
A: The normalised SPOT signal, Boehringer light units (BLU); mean over the file's lines of this peptide was 58.4.

Q: And the normalised SPOT signal, Boehringer light units (BLU); mean over the file's lines of this peptide [2]?
A: The normalised SPOT signal, Boehringer light units (BLU); mean over the file's lines of this peptide was 33.2.

Q: What about the normalised SPOT signal, Boehringer light units (BLU); mean over the file's lines of this peptide [3] of the same binder?
A: The normalised SPOT signal, Boehringer light units (BLU); mean over the file's lines of this peptide was 164.

Q: And the normalised SPOT signal, Boehringer light units (BLU); mean over the file's lines of this peptide [4]?
A: The normalised SPOT signal, Boehringer light units (BLU); mean over the file's lines of this peptide was 28.2.

Q: And the normalised SPOT signal, Boehringer light units (BLU); mean over the file's lines of this peptide [5]?
A: Its normalised SPOT signal, Boehringer light units (BLU); mean over the file's lines of this peptide is 42.1.

Q: And the normalised SPOT signal, Boehringer light units (BLU); mean over the file's lines of this peptide [6]?
A: Its normalised SPOT signal, Boehringer light units (BLU); mean over the file's lines of this peptide is 47.8.

Q: What about the normalised SPOT signal, Boehringer light units (BLU); mean over the file's lines of this peptide [7] of the same binder?
A: Its normalised SPOT signal, Boehringer light units (BLU); mean over the file's lines of this peptide is 18.7.

Q: Which results are given for HSTPKPLPPVPALS [YNL106C 1030-1043]?
A: normalised SPOT signal, Boehringer light units (BLU); mean over the file's lines of this peptide [1]: 1.1; normalised SPOT signal, Boehringer light units (BLU); mean over the file's lines of this peptide [2]: 28.4; normalised SPOT signal, Boehringer light units (BLU); mean over the file's lines of this peptide [3]: 144; normalised SPOT signal, Boehringer light units (BLU); mean over the file's lines of this peptide [4]: 94.4; normalised SPOT signal, Boehringer light units (BLU); mean over the file's lines of this peptide [5]: 21600; normalised SPOT signal, Boehringer light units (BLU); mean over the file's lines of this peptide [6]: 470; normalised SPOT signal, Boehringer light units (BLU); mean over the file's lines of this peptide [7]: 29.9

Q: HLVRKVAPTKPMYS [YHR070W 477-490] was tested. Which normalised SPOT signal, Boehringer light units (BLU); mean over the file's lines of this peptide [1] did it give?
A: Its normalised SPOT signal, Boehringer light units (BLU); mean over the file's lines of this peptide is 283.

Q: What about the normalised SPOT signal, Boehringer light units (BLU); mean over the file's lines of this peptide [2] of the same binder?
A: The normalised SPOT signal, Boehringer light units (BLU); mean over the file's lines of this peptide was 69.3.

Q: And the normalised SPOT signal, Boehringer light units (BLU); mean over the file's lines of this peptide [3]?
A: Its normalised SPOT signal, Boehringer light units (BLU); mean over the file's lines of this peptide is 478.

Q: And the normalised SPOT signal, Boehringer light units (BLU); mean over the file's lines of this peptide [4]?
A: Its normalised SPOT signal, Boehringer light units (BLU); mean over the file's lines of this peptide is 252.

Q: What about the normalised SPOT signal, Boehringer light units (BLU); mean over the file's lines of this peptide [5] of the same binder?
A: The normalised SPOT signal, Boehringer light units (BLU); mean over the file's lines of this peptide was 121.

Q: What about the normalised SPOT signal, Boehringer light units (BLU); mean over the file's lines of this peptide [6] of the same binder?
A: The normalised SPOT signal, Boehringer light units (BLU); mean over the file's lines of this peptide was 947.

Q: And the normalised SPOT signal, Boehringer light units (BLU); mean over the file's lines of this peptide [7]?
A: The normalised SPOT signal, Boehringer light units (BLU); mean over the file's lines of this peptide was 70.2.

Q: Which results are given for IAEWKNDPNNPNFE [YMR277W 194-207]?
A: normalised SPOT signal, Boehringer light units (BLU); mean over the file's lines of this peptide [1]: 69.4; normalised SPOT signal, Boehringer light units (BLU); mean over the file's lines of this peptide [2]: 28.7; normalised SPOT signal, Boehringer light units (BLU); mean over the file's lines of this peptide [3]: 91.1; normalised SPOT signal, Boehringer light units (BLU); mean over the file's lines of this peptide [4]: 20.5; normalised SPOT signal, Boehringer light units (BLU); mean over the file's lines of this peptide [5]: 25.5; normalised SPOT signal, Boehringer light units (BLU); mean over the file's lines of this peptide [6]: 0; normalised SPOT signal, Boehringer light units (BLU); mean over the file's lines of this peptide [7]: 9.5

Q: How did the normalised SPOT signal, Boehringer light units (BLU); mean over the file's lines of this peptide [1] turn out when IAGQRTFPEDPNYP [YKR051W 375-388] was run?
A: Its normalised SPOT signal, Boehringer light units (BLU); mean over the file's lines of this peptide is 45.1.

Q: And the normalised SPOT signal, Boehringer light units (BLU); mean over the file's lines of this peptide [2]?
A: Its normalised SPOT signal, Boehringer light units (BLU); mean over the file's lines of this peptide is 0.

Q: And the normalised SPOT signal, Boehringer light units (BLU); mean over the file's lines of this peptide [3]?
A: Its normalised SPOT signal, Boehringer light units (BLU); mean over the file's lines of this peptide is 172.

Q: What about the normalised SPOT signal, Boehringer light units (BLU); mean over the file's lines of this peptide [4] of the same binder?
A: The normalised SPOT signal, Boehringer light units (BLU); mean over the file's lines of this peptide was 28.7.

Q: What about the normalised SPOT signal, Boehringer light units (BLU); mean over the file's lines of this peptide [5] of the same binder?
A: Its normalised SPOT signal, Boehringer light units (BLU); mean over the file's lines of this peptide is 43.4.

Q: What about the normalised SPOT signal, Boehringer light units (BLU); mean over the file's lines of this peptide [6] of the same binder?
A: Its normalised SPOT signal, Boehringer light units (BLU); mean over the file's lines of this peptide is 89.6.

Q: What about the normalised SPOT signal, Boehringer light units (BLU); mean over the file's lines of this peptide [7] of the same binder?
A: Its normalised SPOT signal, Boehringer light units (BLU); mean over the file's lines of this peptide is 16.
